According to publication PMC7069958, “Multi-level and lineage-specific interactomes of the Hox transcription factor Ubx contribute to its functional specificity”:

Molecular target: mB*UbxN51A (UniProt P83949-2 1-380, N336A)
Assay: EMSA; 20 mM HEPES pH 7.9, 1.4 mM MgCl2, 1 mM ZnSO4, 40 mM KCl, 0.1 mM EDTA, 5% glycerol, 0.2 ug poly(dI-dC), 0.1 ug BSA, 10 mM DTT, 0.1% NP40, 30 ul, 20 min; gel 6% acrylamide 0.5x TBE at 4 C
Conditions: protein: recombinant; tags: His, myc-BirA* (N-terminal fusion); label: 5'-Cy5; blunt

mB*UbxN51A, sequence (P83949 other isoform, or with tags, fused parts or gaps N336A): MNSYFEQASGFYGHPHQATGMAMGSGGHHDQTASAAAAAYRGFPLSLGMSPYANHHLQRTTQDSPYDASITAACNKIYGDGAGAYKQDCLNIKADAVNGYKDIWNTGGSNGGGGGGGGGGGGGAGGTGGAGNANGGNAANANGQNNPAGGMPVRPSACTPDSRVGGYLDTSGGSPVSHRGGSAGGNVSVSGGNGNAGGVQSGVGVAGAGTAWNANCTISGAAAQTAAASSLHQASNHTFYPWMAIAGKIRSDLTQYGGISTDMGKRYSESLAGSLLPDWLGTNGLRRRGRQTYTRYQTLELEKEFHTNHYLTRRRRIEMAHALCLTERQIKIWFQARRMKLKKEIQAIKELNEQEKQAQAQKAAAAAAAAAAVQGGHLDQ

B1: Ubx consensus site probe (dsDNA)
DNA 1: TTCAGAGCGAATGATTTATGACCGGTCAAG
DNA 2: CTTGACCGGTCATAAATCATTCGCTCTGAA
Question: Does B1 bind?
Answer: no binding
